# Measured values published in patent US20220332804A1 (CSL INNOVATION, published 2022).
# Where a chain is given by its changes, count along the chain named.
# B1: RF16-226 (antibody, human IgG4 S228P, lambda)
# heavy: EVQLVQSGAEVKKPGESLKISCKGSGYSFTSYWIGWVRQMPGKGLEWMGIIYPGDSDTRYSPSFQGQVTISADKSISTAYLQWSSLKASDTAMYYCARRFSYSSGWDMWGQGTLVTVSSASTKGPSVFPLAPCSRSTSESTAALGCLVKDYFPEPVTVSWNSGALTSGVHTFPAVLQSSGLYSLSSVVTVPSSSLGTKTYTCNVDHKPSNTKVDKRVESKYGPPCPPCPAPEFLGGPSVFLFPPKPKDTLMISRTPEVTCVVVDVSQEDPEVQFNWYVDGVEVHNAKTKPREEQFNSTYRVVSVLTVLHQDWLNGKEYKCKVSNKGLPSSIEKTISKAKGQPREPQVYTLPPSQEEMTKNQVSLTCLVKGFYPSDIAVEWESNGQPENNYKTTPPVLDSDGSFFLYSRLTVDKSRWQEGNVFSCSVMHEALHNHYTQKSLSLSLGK
# light: SYELTQPPSVSVSPGQTARITCSGDALTSKYVAWYQQKSGLAPLLVIYEDTRRPSGIPAKFSGSSSGSVATLTISGAHGDDEADYYCYSTDASGHQRVFGGGTKLTVLSQPKAAPSVTLFPPSSEELQANKATLVCLISDFYPGAVTVAWKADGSPVKAGVETTKPSKQSNNKYAASSYLSLTPEQWKSHRSYSCQVTHEGSTVEKTVAPTECS
# notes: pH-dependent anti-C2 antibody from a phage display library; also called WT
# Key:
# Test in all cases: SPR, antibody captured, C2 as analyte;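 also: biacore SPR at 37 °C, anti-C2 mAbs captured via goat anti-human IgG on CM5 chips, double-referenced sensorgrams fit to a 1:1 kinetic or steady-state model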
# human C2 D710A = molecular target: T1, human C2 D710A (human, UniProt P06681 21-752)
# T1 sequence: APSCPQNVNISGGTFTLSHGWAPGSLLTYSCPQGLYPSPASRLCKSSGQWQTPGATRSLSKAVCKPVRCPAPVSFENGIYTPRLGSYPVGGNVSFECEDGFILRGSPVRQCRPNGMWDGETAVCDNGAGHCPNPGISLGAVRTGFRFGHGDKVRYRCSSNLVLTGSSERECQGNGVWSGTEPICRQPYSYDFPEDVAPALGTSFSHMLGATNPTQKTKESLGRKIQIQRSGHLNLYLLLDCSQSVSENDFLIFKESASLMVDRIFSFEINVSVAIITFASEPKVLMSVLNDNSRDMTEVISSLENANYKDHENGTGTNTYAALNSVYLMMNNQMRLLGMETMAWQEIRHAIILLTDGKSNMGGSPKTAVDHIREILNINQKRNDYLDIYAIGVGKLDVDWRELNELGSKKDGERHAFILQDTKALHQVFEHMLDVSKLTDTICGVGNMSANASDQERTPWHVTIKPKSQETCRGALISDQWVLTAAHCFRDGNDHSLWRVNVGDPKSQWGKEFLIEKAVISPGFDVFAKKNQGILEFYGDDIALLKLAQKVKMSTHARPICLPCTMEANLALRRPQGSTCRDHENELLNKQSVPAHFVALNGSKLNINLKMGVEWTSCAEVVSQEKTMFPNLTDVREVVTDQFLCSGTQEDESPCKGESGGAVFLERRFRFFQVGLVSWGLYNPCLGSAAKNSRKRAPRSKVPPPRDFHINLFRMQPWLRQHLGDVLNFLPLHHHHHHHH
# human C2 G466A = molecular target: T2, human C2 G466A (human, UniProt P06681 21-752)
# T2 sequence: T1 sequence with G446A, A690D
# human C2 E450A = molecular target: T3, human C2 E450A (human, UniProt P06681 21-752)
# T3 sequence: T1 sequence with E430A, A690D
# human C2 L453A = molecular target: T4, human C2 L453A (human, UniProt P06681 21-752)
# T4 sequence: T1 sequence with L433A, A690D
binder,measurement,setting,value
B1,Kd,human C2 D710A,97.4 nM
same,Kd,human C2 G466A,32.4 nM
same,Kd,human C2 E450A,4.2 nM
same,Kd,human C2 L453A,29.9 nM
